Source: US5420243
Ends that are not written are not given here.

Assays:
[1] = molecular target: L6 rat muscle myoblast TGF-β receptor (rat); experiment: competition against 125I-TGF-β2 on L6 rat muscle myoblast TGF-β receptor (Example 5)
[2] = molecular target: L6 rat muscle myoblast TGF-β receptor (rat); experiment: competition against 125I-TGF-β2 on L6 rat muscle myoblasts; called apparent dissociation constant of approximately 3 µM in paragraph 85
[3] = molecular target: L6 rat muscle myoblast TGF-β receptor (rat); experiment: competition against 125I-TGF-β2 on L6 rat muscle myoblasts

## TGF-β2 (from UniProt P61812) (ligand)
[1]
  ED50: 0.06 nM

## CLRPLYIDFKRDLGWKWIHEPKGYNANFCAGA (also: dimer linked by a single disulfide bond, Cys pairing not settled) [TGF-β2 16-47 dimer]
[2]
  ED50: 3 µM

## CLRPLYIDFKRDLGWKWIHEPKGYNANFCAGA [TGF-β2 16-47 monomer]
[3]
  ED50: 30 µM

## CLRPLYIDFKRDLGWK (also: disulfide-linked dimer) [TGF-β2 16-31 dimer]
[3]
  ED50: 30 µM
